Assay [1] deals with GST-L4 (UniProt P36578 1-427). Nature of the assay: pull-down.
Assay [2] deals with GST-L3 (UniProt P39023 1-403). The assay is described as follows: pull-down.

The values below come from publication PMC5041490 (Nucleic Acids Research, 2016).

Positions count from the first letter of the chain named. In names and notes the source's numbering stands.

B1: His-G5(1–739) W14A (domain or fragment)
chain: MGQEPRTLPPSPNAYCARCSDAVPGGLFGFAARTSVFLVRVGPGAGESPGTPPFRVIGELVGHTERVSGFTFSHHPGQYNLCATSSDDGTVKIWDVETKTVVTEHALHQHTISTLHWSPRVKDLIVSGDEKGVVFCYWFNRNDSQHLFIEPRTIFCLTCSPHHEDLVAIGYKDGIVVIIDISKKGEVIHRLRGHDDEIHSIAWCPLPGEDCLSINQEETSEEAEITNGNAVAQAPVTKGCYLATGSKDQTIRIWSCSRGRGVMILKLPFLKRRGGGIDPTVKERLWLTLHWPSNQPTQLVSSCFGGELLQWDLTQSWRRKYTLFSASSEGQNHSRIVFNLCPLQTEDDKQLLLSTSMDRDVKCWDIATLECSWTLPSLGGFAYSLAFSSVDIGSLAIGVGDGMIRVWNTLSIKNNYDVKNFWQGVKSKVTALCWHPTKEGCLAFGTDDGKVGLYDTYSNKPPQISSTYHKKTVYTLAWGPPVPPMSLGGEGDRPSLALYSCGGEGIVLQHNPWKLSGEAFDINKLIRDTNSIKYKLPVHTEISWKADGKIMALGNEDGSIEIFQIPNLKLICTIQQHHKLVNTISWHHEHGSQPELSYLMASGSNNAVIYVHNLKTVIESSPESPVTITEPYRTLSGHTAKITSVAWSPHHDGRLVSASYDGTAQVWDALREEPLCNFRGHRGRLLCVAWSPLDPDCIYSGADDFCVHKWLTSMQDHSRPPQGKKSIELEKKRLSQPKA
As for B1, the binding result in assay [1] and in assay [2] was “binds” throughout.

B2: His-G5(1–739) Y15A (domain or fragment)
chain: B1 chain with A14W, Y15A
For the molecule B2, the binding result in assay [1] and in assay [2] was “binds” throughout.
